This is an account of results in patent publication US10131691B2, “Compositions and methods for specific regulation of pyruvate dehydrogenase kinase” (THE BOARD OF TRUSTEES OF THE LELAND STANFORD JUNIOR …, priority 2011, dated 2018).

No end group written: not given here.

In assay [1] the target is T1, δPKC phosphorylation of PDK (Homo sapiens, UniProt Q05655).
T1 construct: purchased Invitrogen (δPKC); Abnova (PDK2)
In words: In vitro kinase assay: δPKC phosphorylation of PDK2. Type of assay: biochemical. As to conditions: recombinant δPKC and PDK2. As for the experimental part: In vitro phosphorylation assay. To determine the level of PDK and Drp1 phosphorylation in presence of ΨPDK, δPKC recombinant protein (Invitrogen, Calif., USA; 200 ng) was incubated with or without peptides for 10 min, then 100 ng recombinant PDK2 (Abnova, Taiwan) or Drp1 (Abnova, Taiwan) were added for 20 min at 37° C. in 40 μl of kinase buffer (20 mM Tris-HCl, 20 mM MgCl2, 1 μM DTT, 25 μM ATP, 1 mM CaCl2) containing 5 μCi [γ^32P] ATP (4500 Ci/mmol, ICN) in the presence of the low amount of PKC activators, phosphatidylserine (PS, 1.25 μg) and 1,2 dioleoyl sn-glycerol (DG, 0.04 μg). The kinase assay was terminated by adding loading Laemmli buffer containing 5% SDS and the samples were loaded on a 10% PAGE-SDS polyacrylamide gel, and the levels of phosphorylated PDK2 protein were determined by exposing the nitrocellulose to autoradiography. The nitrocellulose was also reprobed using respective antibodies for loading controls.
Since ΨPDK is derived from a PDK-like sequence in δPKC (FIG. 1B), it was reasoned that this peptide should act as a competitive inhibitor, selective for δPKC phosphorylation of PDK. To test this hypothesis directly, an in vitro kinase assay in which the ability of δPKC to phosphorylate PDK is determined was used.

In another assay the target is T2, εPKC (Homo sapiens, UniProt Q02156).
T2 sequence (Q02156 1-737): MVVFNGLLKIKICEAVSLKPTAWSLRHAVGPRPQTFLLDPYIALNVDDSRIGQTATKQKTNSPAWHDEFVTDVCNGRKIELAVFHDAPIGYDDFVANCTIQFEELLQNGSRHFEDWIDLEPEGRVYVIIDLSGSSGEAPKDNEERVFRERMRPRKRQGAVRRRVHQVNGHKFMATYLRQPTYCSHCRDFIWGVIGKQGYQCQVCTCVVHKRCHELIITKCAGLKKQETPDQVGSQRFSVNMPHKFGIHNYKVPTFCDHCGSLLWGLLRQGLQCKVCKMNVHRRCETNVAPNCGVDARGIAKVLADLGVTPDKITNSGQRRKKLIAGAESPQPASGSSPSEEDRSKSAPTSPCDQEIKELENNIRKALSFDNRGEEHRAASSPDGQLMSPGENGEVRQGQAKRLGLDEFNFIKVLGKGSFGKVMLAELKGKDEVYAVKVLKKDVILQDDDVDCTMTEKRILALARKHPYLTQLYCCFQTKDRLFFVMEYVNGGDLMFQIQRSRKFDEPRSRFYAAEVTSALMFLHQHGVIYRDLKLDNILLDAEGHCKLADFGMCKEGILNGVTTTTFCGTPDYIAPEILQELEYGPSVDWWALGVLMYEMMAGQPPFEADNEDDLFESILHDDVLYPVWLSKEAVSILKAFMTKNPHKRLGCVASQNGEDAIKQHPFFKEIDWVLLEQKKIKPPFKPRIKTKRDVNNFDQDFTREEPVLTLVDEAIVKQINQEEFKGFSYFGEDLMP
Nature of the assay: Proteinase K sensitivity of εPKC. It counts as binding.

The next assay relates to PDK2. Nature of the assay: 2-D IEF phosphorylation of PDK2 in hearts after I/R. The arrangement: species or system rat. The conditions noted are these: cardiac I/R. Here is the method: (§1) An ex vivo model of acute ischemic heart damage was used, which involves a 30 min equilibration period, followed by 30 min of global ischemia, which in turn is followed by 60 min of reperfusion. The hearts were perfused with 1 μM TAT or TAT-conjugated peptide. Normoxic control hearts were subjected to 90 min perfusion in the absence of ischemia. Coronary effluent was collected to determine creatine phosphokinase (CPK) release during the first 30 min of the reperfusion period. At the end of the reperfusion period, hearts were sliced into 1-mm-thick transverse sections and incubated in triphenyltetrazolium chloride solution (TTC, 1% in phosphate buffer, pH 7.4) at 37° C. for 15 min. Infarct size was expressed as a percentage of the risk zone (equivalent to total LV muscle mass) (methods described in Brandman et al., 2007, J. Biol. Chem., 282:4113-4123; Inagaki et al., 2003, Circulation, 108:869-875). […]
(§2) As described above, δPKC phosphorylation of PDK following cardiac ischemia and reperfusion leads to the phosphorylation and a decline in the activity of pyruvate dehydrogenase (PDH) (Churchill et al., 2005, Circ. Res., 97:78-85). […] Since ΨPDK is derived from the PDK homologous sequence in δPKC, it was next determined whether PDK phosphorylation is affected by ΨPDK treatment.

The next assay deals with E1 subunit of PDH. Nature of the assay: 2-D IEF phosphorylation of PDH E1 subunit in hearts after I/R. Further details: species or system rat. The conditions noted are these: cardiac I/R. Here is the method: as §1, §2

T1 sequence (Q05655 whole entry): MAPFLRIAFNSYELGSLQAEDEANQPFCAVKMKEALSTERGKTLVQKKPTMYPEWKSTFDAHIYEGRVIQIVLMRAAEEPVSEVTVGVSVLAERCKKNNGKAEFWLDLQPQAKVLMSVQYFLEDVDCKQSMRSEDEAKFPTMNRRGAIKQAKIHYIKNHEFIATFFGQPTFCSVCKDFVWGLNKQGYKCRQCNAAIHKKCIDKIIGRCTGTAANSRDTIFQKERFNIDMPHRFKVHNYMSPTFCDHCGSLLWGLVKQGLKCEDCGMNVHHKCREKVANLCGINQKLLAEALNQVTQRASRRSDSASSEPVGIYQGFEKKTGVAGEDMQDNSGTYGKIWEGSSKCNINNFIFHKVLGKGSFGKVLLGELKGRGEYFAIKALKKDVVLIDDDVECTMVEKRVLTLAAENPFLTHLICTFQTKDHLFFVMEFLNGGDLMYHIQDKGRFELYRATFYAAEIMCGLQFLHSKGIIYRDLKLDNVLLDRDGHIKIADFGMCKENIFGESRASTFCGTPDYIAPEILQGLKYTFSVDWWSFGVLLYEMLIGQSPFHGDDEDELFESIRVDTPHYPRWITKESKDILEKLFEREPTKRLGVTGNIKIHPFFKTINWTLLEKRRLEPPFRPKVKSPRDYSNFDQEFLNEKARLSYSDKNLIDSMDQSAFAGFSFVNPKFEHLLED

For “ALSTER (not fully specified (C-terminus); also: TAT47-57 conjugated via disulfide) [ΨPDK, for cells and hearts conjugated to TAT47-57 via disulfide bond]”, the “inhibition of δPKC phosphorylation of PDK” value in assay [1] is roughly 30%. The “sensitivity of εPKC to proteolysis by PK” value in the assay with εPKC is “unaffected”. The “phosphorylation of PDK2” value in the assay with PDK2 is given as “did not occur”. Besides, the “phosphorylation of E1 subunit of PDH” value in the assay on E1 subunit of PDH was “did not occur”.
